Test results published in PMC13108886, “Constitutively active RAS prolongs Cdc42 signalling, while MAPK signalling is attenuated during fission yeast mating” (PLOS Genetics, 2026).

T1: GTP-loaded Ras1.G17V (1-172) (Schizosaccharomyces pombe (fission …, UniProt P08647 1-172, G17V))
T1 construct: stopped with 20.5 mM MgCl2) just before the pull-down; Cloned in the vector pLEICS1; also called Ras1.G17V^GTP; source: E. coli BL21 Rosetta, purified (Ni Sepharose 6 Fast Flow), loaded with GTP
T1 sequence (looked up): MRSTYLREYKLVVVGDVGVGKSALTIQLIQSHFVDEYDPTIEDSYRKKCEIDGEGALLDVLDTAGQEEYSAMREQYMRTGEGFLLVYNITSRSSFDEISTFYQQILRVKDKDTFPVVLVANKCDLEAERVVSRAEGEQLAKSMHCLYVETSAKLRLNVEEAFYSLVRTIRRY

B1: GST-Byr2 (65-180) (domain or fragment, UniProt P28829 65-180, looked up)
chain: REFPRPCILRFIACNGQTRAVQSRGDYQKTLAIALKKFSLEDASKFIVCVSQSSRIKLITEEEFKQICFNSSSPERDRLIIVPKEKPCPSFEDLRRSWEIELAQPAALSSQSSLSP
notes: Cloned in the vector pLEICS4; also called GST-Byr2-RBD; Byr2-RBD; source: E. coli BL21 Rosetta, purified (glutathione sepharose 4B), kept on the beads; not shown: GST, N-terminal, kept
B2: GST-Scd1 (760-872) (domain or fragment, UniProt P40995 760-872, looked up)
chain: SSSTSTSLSVRNTTNVKIRLRLHEVSLVLVVAHDITFDELLAKVEHKIKLCGILKQAVPFRVRLKYVDEDGDFITITSDEDVLMAFETCTFELMDPVHNKGMDTVSLHVVVYF
notes: Cloned in the vector pLEICS4; also called GST-Scd1-PB1; Scd1-PB1; source: E. coli BL21 Rosetta, purified (glutathione sepharose 4B), kept on the beads; not shown: GST, N-terminal, kept
B3: Scd1 (760-872) fragment (domain or fragment, UniProt P40995 760-872, looked up)
chain: B2 chain
notes: legend and methods say the fragment freed of GST; also called Scd1-PB1; source: E. coli BL21 Rosetta; not shown: GST, N-terminal, cleaved

What was measured:
[1] = target: T1, GTP-loaded Ras1.G17V (1-172); test: pull-down; GST-Byr2 (65-180) or GST-Scd1 (760-872) on glutathione sepharose 4B beads, GTP-loaded Ras1.G17V (1-172) added; buffer A (20 mM Tris-Cl pH 7.5, 100 mM NaCl, 5 mM MgCl2, 1 mM beta-mercaptoethanol), 4 C, 30 min; bound fraction on SDS-PAGE, InstantBlue stain; details: both partners purified
[2] = target: T1, GTP-loaded Ras1.G17V (1-172); test: pull-down; competition: GST-Byr2 (65-180) on glutathione beads, GTP-loaded Ras1.G17V (1-172) with or without the Scd1 (760-872) fragment; buffer A, 4 C, 30 min; Ras1.G17V band on the stained gel quantified with Fiji; details: both partners purified

Row | Binder | binding result [1] | binding result [2]
1 | B1 | binds | –
2 | B2 | binds | –
3 | B3 | – | binds
